Test results: paper PMC9127186, “Molecular Basis Underlying Hepatobiliary and Renal Excretion of Phenolic Acids of Salvia miltiorrhiza Roots (Danshen)” (Frontiers in Pharmacology, 2022)
Each block holds one molecule with its values, some of them ahead of it. Where a SMILES comes first, the peptide text is derived from it. [ ]: non-standard residue; d: D form. Sar = CNCC(=O)O

How the values were obtained:
human PEPT2 = biological target: T1, human PEPT2 (Homo sapiens, UniProt Q16348); test: Cellular transport assay, HEK-293 cells expressing human PEPT2; settings: positive substrate 20 μM, 10 min; human PEPT2
T1 sequence (Q16348 1-729): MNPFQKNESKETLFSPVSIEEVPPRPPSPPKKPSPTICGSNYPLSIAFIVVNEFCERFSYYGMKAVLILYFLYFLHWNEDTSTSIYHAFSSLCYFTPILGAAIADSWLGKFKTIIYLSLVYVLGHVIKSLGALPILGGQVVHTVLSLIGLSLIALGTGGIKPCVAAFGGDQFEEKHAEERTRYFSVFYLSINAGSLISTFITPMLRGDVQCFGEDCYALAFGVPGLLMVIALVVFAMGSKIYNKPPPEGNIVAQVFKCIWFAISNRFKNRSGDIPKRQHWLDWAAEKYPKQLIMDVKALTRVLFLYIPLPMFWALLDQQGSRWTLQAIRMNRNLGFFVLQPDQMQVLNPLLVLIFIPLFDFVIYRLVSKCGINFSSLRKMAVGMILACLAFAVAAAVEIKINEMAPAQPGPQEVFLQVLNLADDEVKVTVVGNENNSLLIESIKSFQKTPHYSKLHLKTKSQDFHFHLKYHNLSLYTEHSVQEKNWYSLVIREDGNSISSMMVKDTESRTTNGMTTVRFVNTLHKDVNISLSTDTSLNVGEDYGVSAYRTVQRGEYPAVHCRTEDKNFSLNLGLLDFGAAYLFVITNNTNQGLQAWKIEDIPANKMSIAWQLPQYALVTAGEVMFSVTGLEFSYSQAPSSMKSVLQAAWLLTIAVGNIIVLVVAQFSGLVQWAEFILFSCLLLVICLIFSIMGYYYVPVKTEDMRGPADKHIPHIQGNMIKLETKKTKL

human PEPT1 = biological target: T2, human PEPT1 (Homo sapiens, UniProt P46059); test: Cellular transport assay, HEK-293 cells expressing human PEPT1; settings: positive substrate 20 μM, 10 min; human transporter printed PEPE1
T2 sequence (P46059 1-708): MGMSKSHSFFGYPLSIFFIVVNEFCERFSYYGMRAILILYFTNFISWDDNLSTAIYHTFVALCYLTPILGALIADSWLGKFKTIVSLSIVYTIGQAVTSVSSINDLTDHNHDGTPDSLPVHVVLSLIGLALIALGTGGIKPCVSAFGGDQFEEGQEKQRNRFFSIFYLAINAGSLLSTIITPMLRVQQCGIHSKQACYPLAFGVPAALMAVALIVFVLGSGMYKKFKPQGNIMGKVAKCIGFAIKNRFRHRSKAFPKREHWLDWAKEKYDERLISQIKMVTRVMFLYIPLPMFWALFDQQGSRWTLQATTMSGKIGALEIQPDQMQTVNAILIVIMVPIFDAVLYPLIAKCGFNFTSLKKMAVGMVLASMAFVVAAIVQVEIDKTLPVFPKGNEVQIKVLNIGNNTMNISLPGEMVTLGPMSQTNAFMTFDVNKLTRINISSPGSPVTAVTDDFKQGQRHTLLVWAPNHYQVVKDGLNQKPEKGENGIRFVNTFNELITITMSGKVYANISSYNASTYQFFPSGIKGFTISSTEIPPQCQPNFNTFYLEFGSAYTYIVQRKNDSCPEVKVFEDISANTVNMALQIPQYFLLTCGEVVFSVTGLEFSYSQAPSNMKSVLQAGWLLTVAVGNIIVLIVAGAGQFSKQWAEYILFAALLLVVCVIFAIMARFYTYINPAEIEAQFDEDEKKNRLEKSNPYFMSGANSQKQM

rat Pept1 = biological target: T3, rat Pept1 (Rattus norvegicus, UniProt P51574); test: Cellular transport assay, HEK-293 cells expressing rat Pept1; settings: positive substrate 20 μM, 10 min; rat Pept1
T3 sequence (P51574 1-710): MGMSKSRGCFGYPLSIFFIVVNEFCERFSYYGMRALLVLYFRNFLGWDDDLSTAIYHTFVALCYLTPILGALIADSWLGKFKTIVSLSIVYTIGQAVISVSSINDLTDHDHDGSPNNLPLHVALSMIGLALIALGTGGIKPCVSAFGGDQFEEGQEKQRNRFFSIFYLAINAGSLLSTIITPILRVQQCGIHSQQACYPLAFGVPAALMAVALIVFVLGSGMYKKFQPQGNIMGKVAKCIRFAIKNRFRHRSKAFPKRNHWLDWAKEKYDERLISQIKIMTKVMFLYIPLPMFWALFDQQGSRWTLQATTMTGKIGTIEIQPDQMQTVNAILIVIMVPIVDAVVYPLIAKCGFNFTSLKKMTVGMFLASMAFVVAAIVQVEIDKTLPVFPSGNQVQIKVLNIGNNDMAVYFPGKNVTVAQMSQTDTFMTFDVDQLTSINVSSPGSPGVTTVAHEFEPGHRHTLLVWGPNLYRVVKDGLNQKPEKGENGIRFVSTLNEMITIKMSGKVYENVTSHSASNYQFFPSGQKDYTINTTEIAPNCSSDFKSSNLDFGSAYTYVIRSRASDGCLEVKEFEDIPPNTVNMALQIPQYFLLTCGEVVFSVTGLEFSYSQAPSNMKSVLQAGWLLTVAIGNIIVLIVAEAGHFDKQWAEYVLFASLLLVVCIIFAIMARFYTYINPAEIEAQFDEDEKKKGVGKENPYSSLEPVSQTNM

rat Pept2 = biological target: T4, rat Pept2 (Rattus norvegicus, UniProt Q63424); test: Cellular transport assay, HEK-293 cells expressing rat Pept2; settings: positive substrate 20 μM, 10 min; rat Pept2
T4 sequence (Q63424 1-729): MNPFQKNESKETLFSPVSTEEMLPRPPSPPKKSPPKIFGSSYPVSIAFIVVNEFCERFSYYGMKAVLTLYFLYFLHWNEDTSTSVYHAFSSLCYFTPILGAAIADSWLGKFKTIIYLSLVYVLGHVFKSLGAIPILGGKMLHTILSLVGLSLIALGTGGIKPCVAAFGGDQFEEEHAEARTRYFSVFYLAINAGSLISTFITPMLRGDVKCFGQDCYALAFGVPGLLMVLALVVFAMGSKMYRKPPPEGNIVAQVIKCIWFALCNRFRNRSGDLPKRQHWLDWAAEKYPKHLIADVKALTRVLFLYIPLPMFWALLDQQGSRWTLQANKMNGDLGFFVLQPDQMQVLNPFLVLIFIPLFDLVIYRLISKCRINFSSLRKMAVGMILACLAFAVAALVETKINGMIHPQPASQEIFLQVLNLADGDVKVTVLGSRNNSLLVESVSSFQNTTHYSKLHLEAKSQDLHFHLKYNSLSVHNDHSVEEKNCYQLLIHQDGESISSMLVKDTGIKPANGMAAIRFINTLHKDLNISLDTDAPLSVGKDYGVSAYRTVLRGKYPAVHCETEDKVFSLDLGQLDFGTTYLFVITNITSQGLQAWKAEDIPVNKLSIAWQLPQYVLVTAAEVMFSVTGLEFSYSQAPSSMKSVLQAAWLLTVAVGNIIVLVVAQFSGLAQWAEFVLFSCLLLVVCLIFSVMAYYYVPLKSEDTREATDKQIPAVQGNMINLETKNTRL

[1] = substrate: O=C(/C=C/c1ccc(O)c2c1[C@H](C(=O)O)[C@@H](c1ccc(O)c(O)c1)O2)O[C@H](Cc1ccc(O)c(O)c1)C(=O)O; test: cells, lysate or membranes named; settings: 5 min incubation, concentrations in Table 1, 37.0 °C
[2] = substrate: O=C(O)Cc1c(/C=C/C(=O)OC(Cc2ccc(O)c(O)c2)C(=O)O)ccc(O)c1O; test: cells, lysate or membranes named; settings: 5 min incubation, concentrations in Table 1, 37.0 °C
[3] = substrate: O=C(/C=C/c1ccc(O)c(O)c1)O[C@H](Cc1ccc(O)c(O)c1)C(=O)O; test: cells, lysate or membranes named; settings: 5 min incubation, concentrations in Table 1, 37.0 °C
[4] = substrate: O=C(/C=C/c1ccc(O)c(O)c1/C=C/c1ccc(O)c(O)c1)O[C@H](Cc1ccc(O)c(O)c1)C(=O)O; test: cells, lysate or membranes named; settings: other: rat hepatic sinusoidal uptake Oatp1b2; 5 min incubation, concentrations in Table 1; 37.0 °C
[5] = other: human hepatic sinusoidal uptake OATP1B1
[6] = other: rat hepatic sinusoidal uptake Oatp1b2

TransportTC/TransportMC ratio, positive substrate (human PEPT2): 360 ± 49 (GS)
TransportTC/TransportMC ratio, positive substrate (human PEPT1): 126 ± 31 (GS)
TransportTC/TransportMC ratio, positive substrate (rat Pept1): 90.1 ± 10.4 (GS)
TransportTC/TransportMC ratio, positive substrate (rat Pept2): 101 ± 19 (GS)
Molecule: CN(CC(=O)O)C(=O)CN [GS, glycylsarcosine, reference compound] (H-Gly-[Sar]-OH)

B1: human OATP1B1 (Homo sapiens) (protein)
chain: MDQNQHLNKTAEAQPSENKKTRYCNGLKMFLAALSLSFIAKTLGAIIMKSSIIHIERRFEISSSLVGFIDGSFEIGNLLVIVFVSYFGSKLHRPKLIGIGCFIMGIGGVLTALPHFFMGYYRYSKETNINSSENSTSTLSTCLINQILSLNRASPEIVGKGCLKESGSYMWIYVFMGNMLRGIGETPIVPLGLSYIDDFAKEGHSSLYLGILNAIAMIGPIIGFTLGSLFSKMYVDIGYVDLSTIRITPTDSRWVGAWWLNFLVSGLFSIISSIPFFFLPQTPNKPQKERKASLSLHVLETNDEKDQTANLTNQGKNITKNVTGFFQSFKSILTNPLYVMFVLLTLLQVSSYIGAFTYVFKYVEQQYGQPSSKANILLGVITIPIFASGMFLGGYIIKKFKLNTVGIAKFSCFTAVMSLSFYLLYFFILCENKSVAGLTMTYDGNNPVTSHRDVPLSYCNSDCNCDESQWEPVCGNNGITYISPCLAGCKSSSGNKKPIVFYNCSCLEVTGLQNRNYSAHLGECPRDDACTRKFYFFVAIQVLNLFFSALGGTSHVMLIVKIVQPELKSLALGFHSMVIRALGGILAPIYFGALIDTTCIKWSTNNCGTRGSCRTYNSTSFSRVYLGLSSMLRVSSLVLYIILIYAMKKKYQEKDINASENGSVMDEANLESLNKNKHFVPSAGADSETHC
Vmax [1, 5]: 2.7e-05 µmol/min/mg
Vmax/Km [1, 5]: 0.06 µL/min/mg
Vmax [2, 5]: 8.93e-05 µmol/min/mg
Vmax/Km [2, 5]: 0.22 µL/min/mg
Vmax [3, 5]: 9.81e-05 µmol/min/mg
Vmax/Km [3, 5]: 0.07 µL/min/mg

B2: rat Oatp1b2 (Rattus norvegicus) (protein)
chain: MDHTQQSRKAAEAQPSRSKQTRFCDGFKLFLAALSFSYICKALGGVVMKSSITQIERRFDIPSSISGLIDGGFEIGNLLVIVFVSYFGSKLHRPKLIGIGCFIMGIGSILTALPHFFMGYYKYAKENDIGSLGNSTLTCFINQMTSPTGPSPEIVEKGCEKGLKSHMWIYVLMGNMLRGIGETPIVPLGISYLDDFAKEGHTSMHLGTLHTIAMIGPILGFIMSSVFAKIYVDVGYVDLNSVRITPNDARWVGAWWLSFIVNGLLCITSSIPFFFLPKIPKRSQEERKNSVSLHAPKTDEEKKHMTNLTKQEEQDPSNMTGFLRSLRSILTNEIYVIFLILTLLQVSGFIGSFTYLFKFIEQQFGRTASQANFLLGIITIPTMATAMFLGGYIVKKFKLTSVGIAKFVFFTSSVAYAFQFLYFPLLCENKPFAGLTLTYDGMNPVDSHIDVPLSYCNSDCSCDKNQWEPICGENGVTYISPCLAGCKSFRGDKKPNNTEFYDCSCISNSGNNSAHLGECPRYKCKTNYYFYIILQVTVSFFTAMGSPSLILILMKSVQPELKSLAMGFHSLIIRALGGILAPIYYGAFIDRTCIKWSVTSCGKRGACRLYNSRLFGFSYLGLNLALKTPPLFLYVVLIYFTKRKYKRNDNKTLENGRQFTDEGNPDSVNKNGYYCVPYDEQSNETPL
Vmax [4]: 1.92e-05 µmol/min/mg
Vmax/Km [4]: 0.38 µL/min/mg
Vmax [1, 6]: 3.77e-05 µmol/min/mg
Vmax/Km [1, 6]: 0.41 µL/min/mg
Vmax [2, 6]: 0.000572 µmol/min/mg
Vmax/Km [2, 6]: 1.23 µL/min/mg
Vmax [3, 6]: 0.000159 µmol/min/mg
Vmax/Km [3, 6]: 0.08 µL/min/mg
